Measurements reported in publication PMC10657434, “Architecture of the baculovirus nucleocapsid revealed by cryo-EM” (Nature Communications, 2023).

B1: AC101 (BV/ODV-C42) (natural protein)
chain: MSAIALYLEINKLRLKIDEPMQLAIWPQLFPLLCDEHQSVQLNTDVLINFMMHVARKSQNTILNNNAAIASQYAAGNADVVAAPASAQPTPRPVINLFARANAAAPAQPSEELINMRRYRNAARKLIHHYSLNSTSSTEYKISDVVMTMIFLLRSEKYHSLFKLLETTFDDYTCRPQMTQVQTDTLLDAVRSLLEMPSTTIDLTTVDIMRSSFARCFNSPIMRYAKIVLLQNVALQRDKRTTLEELLIERGEKIQMLQPQQYINSGTEIPFCDDAEFLNRLLKHIDPYPLSRMYYNAANTMFYTTMENYAVSNCKFNIEDYNNIFKVMENIRKHSNKNSNDQDELNIYLGVQSSNAKRKKY
notes: AC101 (BV/ODV-C42) of AcMNPV, as present in the native nucleocapsid; ~110 N-terminal and ~30 C-terminal residues are not resolved; modelled parts include Glu112-Asn218, Ser219-Thr241 and Leu243-His334; also called BV/ODV-42; AC101-1; source: AcMNPV ODV nucleocapsids from occlusion bodies of infected Spodoptera exigua larvae; alkaline lysis, centrifugation
B2: polyhedrin (natural protein)
chain: MPDYSYRPTIGRTYVYDNKYYKNLGAVIKNAKRKKHFAEHEIEEATLDPLDNYLVAEDPFLGPGKNQKLTLFKEIRNVKPDTMKLVVGWKGKEFYRETWTRFMEDSFPIVNDQEVMDVFLVVNMRPTRPNRCYKFLAQHALRCDPDYVPHDVIRIVEPSWVGSNNEYRISLAKKGGGCPIMNLHSEYTNSFEQFIDRVIWENFYKPIVYIGTDSAEEEEILLEVSLVFKVKEFAPDAPLFTGPAY
notes: polyhedrin of AcMNPV, left in the nucleocapsid sample after alkaline lysis of occlusion bodies; also called polyhedrins; source: present in the buffer of the AcMNPV nucleocapsid preparation (nucleocapsids not isolated by gradient centrifugation)
B3: major capsid protein VP39 (natural protein)
chain: MALVPVGMAPRQMRVNRCIFASIVSFDACITYKSPCSPDAYHDDGWFICNNHLIKRFKMSKMVLPIFDEDDNQFKMTIARHLVGNKERGIKRILIPSATNYQDVFNLNSMMQAEQLIFHLIYNNENAVNTICDNLKYTEGFTSNTQRVIHSVYATTKSILDTTNPNTFCSRVSRDELRFFDVTNARALRGGAGDQLFNNYSGFLQNLIRRAVAPEYLQIDTEELRFRNCATCIIDETGLVASVPDGPELYNPIRSSDIMRSQPNRLQIRNVLKFEGDTRELDRTLSGYEEYPTYVPLFLGYQIINSENNFLRNDFIPRANPNATLGGGAVAGPAPGVAGEAGGGIAV
notes: major capsid protein VP39 of Autographa californica multiple nucleopolyhedrovirus (AcMNPV), as present in the native nucleocapsid; regions described in the model run from Arg14 to Asn320; Native virion protein; forms disulfide-linked dimers arranged as a 14-start helical cylinder; also called VP39A; VP39B; source: AcMNPV ODV nucleocapsids from occlusion bodies of infected Spodoptera exigua …
B4: AC104 (VP80) (natural protein)
chain: MNDSNSLLITRLAAQILSRNMQTVDVIVDDKTLSLEEKIDTLTSMVLAVNSPPQSPPRVTSSDLAASIIKNNSKMVGNDFEMRYNVLRMAVVFVKHYPKYYNETTAGLVAEIESNLLQYQNYVNQGNYQNIEGYDSLLNKAEECYVKIDRLFKESIKKIMDDTEAFEREQEAERLRAEQTAANALLERRAQTSADDVVNRADANIPTAFSDPLPGPSAPRYMYESSESDTYMETARRTAEHYTDQDKDYNAAYTADEYNSLVKTVLLRLIEKALATLKNRLHITTIDQLKKFRDYLNSDADAGEFQIFLNQEDCVILKNLSNLASKFFNVRCVADTLEVMLEALRNNIELVQPESDAVRRIVIKMTQEIKDSSTPLYNIAMYKSDYDAIKNKNIKTLFDLYNDRLPINFLDTSATSPVRKTSGKRSAEDDLLPTRSSKRANRPEINVISSEDEQEDDDVEDVDYEKESKRRKLEDEDFLKLKALEFSKDIVNEKLQKIIVVTDGMKRLYEYCNCKNSLETLPSAANYGSLLKRLNLYNLDHIEMNVNFYELLFPLTLYNDNDNSDKTLSHQLVNYIFLASNYFQNCAKNFNYMRETFNVFGPFKQIDFMVMFVIKFNFLCDMRNFAKLIDELVPNKQPNMRIHSVLVMRDKIVKLAFSNLQFQTFSKKDKSRNTKHLQRLIMLMNANYNVI
notes: AC104 (VP80) of AcMNPV, as present in the native nucleocapsid; only Ile490-Thr664 and Asn673-Asn685 (AC104-1, AC104-2) and Asp463-Ile691 (AC104-3) are resolved and modelled; also called AC104-1; AC104-2; source: AcMNPV ODV nucleocapsids from occlusion bodies of infected Spodoptera exigua larvae; alkaline lysis, centrifugation

Key:
[1] = target: the molecule itself; assay: cryo-EM structure; head and base of native AcMNPV ODV nucleocapsids; local refinement 4.3 Å (elements common to both ends), 4.8 Å (base with AC98), 4.9 Å (plug); AlphaFold2 models docked into density and refined; partners co-purified as the native nucleocapsid
[2] = target: the molecule itself; assay: cross-linking; purified AcMNPV nucleocapsid, 2 mM BS3 on ice 2 h, stopped with 50 mM Tris-HCl pH 7.5; mass spectrometry, pLink2
[3] = target: the molecule itself; assay: cryo-EM structure; helical cylinder of native AcMNPV ODV nucleocapsids; helical reconstruction 3.9 Å, local refinement 3.2 Å; VP39 model built de novo; partners co-purified as the native nucleocapsid
AC104 (VP80) = target: B4; assay: cryo-EM structure; head and base of native AcMNPV ODV nucleocapsids; local refinement 4.3 Å (elements common to both ends), 4.8 Å (base with AC98), 4.9 Å (plug); AlphaFold2 models docked into density and refined; partners co-purified as the native nucleocapsid; conditions: both partners purified

B1
binding result [1]: binds

B2
binding result [2]: binds

B3
binding result [3]: binds
binding result (AC104 (VP80)): binds

B4
binding result [1]: binds
